{
  "source": "paper PMC5256927",
  "about": "“Proteolysis-Dependent Remodeling of the Tubulin Homolog FtsZ at the Division Septum in Escherichia coli” (PLoS ONE, 2017)",
  "key": {"[1]": {"molecular_target": "Gfp-ZC67(R379E) (E. coli) (UniProt P0A9A6)"}, "Gfp-ZC67 (E. coli)": {"molecular_target": "Gfp-ZC67 (E. coli) (UniProt P0A9A6)"}, "[2]": {"molecular_target": "the molecule itself", "test": "co-sedimentation; polymers collected by ultracentrifugation (129,000xg, 30 min, 23°C) after 3 min with GTP (2 mM) and a regenerating system in 50 mM MES pH 6.5, 100 mM KCl, 10 mM MgCl2; FtsZ and/or Gfp-FtsZ, 10 μM total; pellets and supernatants by SDS-PAGE"}, "[3]": {"molecular_target": "the molecule itself", "test": "cross-linking + other: sucrose gradient fractionation; without GTP; labeled FtsZ 24 μM in 50 mM MES pH 6.5, 100 mM KCl, 10 mM MgCl2; cross-linked with DSP (0.6 mM), 5–20% sucrose gradient with 40% cushion, 100,000xg, 180 min, 4°C; fractions read by fluorescence"}},
  "data": [
    {"molecule": "ClpXP (from UniProt P0A6H1 1-424; P0A6G7 15-207) (complex)", "values": [
      {"measurement": "degradation of Gfp-ZC67(R379E) (3 μM) by ClpXP (1 μM) with ATP (5 mM): loss of fluorescence with time, against Gfp-ZC67 (% more slowly than Gfp-ZC67)", "setting": "[1]", "value": 50},
      {"measurement": "degradation of Gfp-ZC67 (3 μM) by ClpXP (1 μM) with ATP (5 mM): loss of Gfp fluorescence after 60 min (% of the initial fluorescence)", "setting": "Gfp-ZC67 (E. coli)", "value": 25}
    ]},
    {"molecule": "FtsZ (natural protein, E. coli, UniProt P0A9A6 1-383, looked up, FtsZ, E. coli, cell division protein (tubulin homolog); schematic gives polymerization domain 1-316, unstructured linker 317-369, C-terminal region 370-383; plasmid pET-FtsZ; also called native FtsZ; wild type FtsZ; source: E. coli BL21 (λDE3), purified as described [24,25,72,73]) MFEPMELTNDAVIKVIGVGGGGGNAVEHMVRERIEGVEFFAVNTDAQALRKTAVGQTIQIGSGITKGLGAGANPEVGRNAADEDRDALRAALEGADMVFIAAGMGGGTGTGAAPVVAEVAKDLGILTVAVVTKPFNFEGKKRMAFAEQGITELSKHVDSLITIPNDKLLKVLGRGISLLDAFGAANDVLKGAVQGIAELITRPGLMNVDFADVRTVMSEMGYAMMGSGVASGEDRAEEAAEMAISSPLLEDIDLSGARGVLVNITAGFDLRLDEFETVGNTIRAFASDNATVVIGTSLDPDMNDELRVTVVATGIGMDKRPEITLVTNKQVQQPVMDRYQQHGMAPLTQEQKPVAKVVNDNAPQTAKEPDYLDIPAFLRKQAD", "values": [
      {"measurement": "binding result", "setting": "[2]", "value": "binds"}
    ]},
    {"molecule": "Alexa Fluor labeled FtsZ (FtsZ-AF488) (natural protein, E. coli, UniProt P0A9A6 1-383, looked up, Alexa Fluor 488 label (site not stated), FtsZ, E. coli, as m1, labeled with Alexa Fluor; schematic gives regions 1-316, 317-369, 370-383; also called labeled fluorescent FtsZ; Fluorescence-labeled FtsZ; source: E. coli BL21 (λDE3), purified, labeled with Alexa Fluor 488; fluorescent active subunits obtained by cycles of polymerization and depolymerization) MFEPMELTNDAVIKVIGVGGGGGNAVEHMVRERIEGVEFFAVNTDAQALRKTAVGQTIQIGSGITKGLGAGANPEVGRNAADEDRDALRAALEGADMVFIAAGMGGGTGTGAAPVVAEVAKDLGILTVAVVTKPFNFEGKKRMAFAEQGITELSKHVDSLITIPNDKLLKVLGRGISLLDAFGAANDVLKGAVQGIAELITRPGLMNVDFADVRTVMSEMGYAMMGSGVASGEDRAEEAAEMAISSPLLEDIDLSGARGVLVNITAGFDLRLDEFETVGNTIRAFASDNATVVIGTSLDPDMNDELRVTVVATGIGMDKRPEITLVTNKQVQQPVMDRYQQHGMAPLTQEQKPVAKVVNDNAPQTAKEPDYLDIPAFLRKQAD", "values": [
      {"measurement": "stoichiometry N", "setting": "[3]", "value": 2}
    ]}
  ]
}
